In US20090318342A1, “Compounds” (IMPERIAL INNOVATIONS LIMITED, priority 2005, published 2009):
Like-named read-outs stand apart in the source and are kept apart here. Values belong to the molecule of their own block, whether it stands above or below them.

What was measured:
Format in all cases: biochemical
[1] = biological target: T1, full-length collagenase 1 (MMP-1) (Homo sapiens, UniProt P03956); experiment: Enzyme inhibition kinetic study, MMP-1
T1 construct: full-length collagenase 1 (MMP-1)
T1 sequence (P03956 100-469): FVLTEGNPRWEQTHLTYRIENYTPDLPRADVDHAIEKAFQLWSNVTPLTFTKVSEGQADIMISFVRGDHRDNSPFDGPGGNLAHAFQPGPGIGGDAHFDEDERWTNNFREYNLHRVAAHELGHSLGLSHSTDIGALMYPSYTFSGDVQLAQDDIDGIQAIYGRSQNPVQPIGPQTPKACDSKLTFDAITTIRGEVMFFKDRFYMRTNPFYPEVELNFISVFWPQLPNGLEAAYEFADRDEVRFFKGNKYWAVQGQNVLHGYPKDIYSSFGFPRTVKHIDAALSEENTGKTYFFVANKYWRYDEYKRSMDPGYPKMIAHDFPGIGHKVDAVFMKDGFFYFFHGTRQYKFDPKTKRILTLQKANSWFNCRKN
Method: (§1) Enzyme inhibition kinetic studies—Inhibition kinetic studies for MMPs and TACE were carried out as described previously (19, 27) with modifications. Purified N-TIMP-3 and mutants were dialyzed against 20 mM Tris-HCl (pH 7.0), 50 mM NaCl containing 20% glycerol, centrifuged at 14,000 rpm for 10 min to remove any precipitate, and protein concentration was re-measured before conducting inhibition assays. Since NaCl inhibits the activity of the TACE ectodomain in vitro (28), we adjusted the final concentration of NaCl to 1 mM in all assays with TACE. Equal volumes (10% of total assay volume) of diluted solutions of N-TIMP-3 and mutants were added to TACE assays, resulting in a final pH of 8.8.
(§2) (Eq. 1) Tight binding inhibition:
(§3) where v is the experimentally determined reaction velocity, v0 is the uninhibited activity, E is enzyme concentration, I is inhibitor concentration, K is the apparent inhibition constant (Ki^(app)) and h is the Hill coefficient.
(§4) Inhibitory properties of mutants with purified metalloproteinases—The inhibitory activities of wild-type N-TIMP-3 and the two mutants were determined with MMPs representing four different sub-groups: full-length collagenase 1 (MMP-1), gelatinase A (MMP-2), and the catalytic domains of stromelysin 1 (MMP-3(ΔC)) and membrane-type 1 MMP (MMP-14). As previously reported for the corresponding mutants of N-TIMP-1 and TIMP-2 (17, 18), both mutations in N-TIMP-3 reduced the inhibitory activity towards the four MMPs by 2 to 3 orders of magnitude (Table I). FIG. 2A highlights the difference in inhibition of MMP-14(CD) by wild-type and mutated N-TIMP-3.
(§5) Ki(app) determinations for MMP-1, MMP-2 and MMP-3 were performed as set out in Example 1.

gelatinase A (MMP-2) = biological target: T2, gelatinase A (MMP-2) (Homo sapiens, UniProt P08253); experiment: Enzyme inhibition kinetic study, MMP-2; conditions: for Ki: read-out: Ki(app) MMP-2
T2 sequence (P08253 110-660): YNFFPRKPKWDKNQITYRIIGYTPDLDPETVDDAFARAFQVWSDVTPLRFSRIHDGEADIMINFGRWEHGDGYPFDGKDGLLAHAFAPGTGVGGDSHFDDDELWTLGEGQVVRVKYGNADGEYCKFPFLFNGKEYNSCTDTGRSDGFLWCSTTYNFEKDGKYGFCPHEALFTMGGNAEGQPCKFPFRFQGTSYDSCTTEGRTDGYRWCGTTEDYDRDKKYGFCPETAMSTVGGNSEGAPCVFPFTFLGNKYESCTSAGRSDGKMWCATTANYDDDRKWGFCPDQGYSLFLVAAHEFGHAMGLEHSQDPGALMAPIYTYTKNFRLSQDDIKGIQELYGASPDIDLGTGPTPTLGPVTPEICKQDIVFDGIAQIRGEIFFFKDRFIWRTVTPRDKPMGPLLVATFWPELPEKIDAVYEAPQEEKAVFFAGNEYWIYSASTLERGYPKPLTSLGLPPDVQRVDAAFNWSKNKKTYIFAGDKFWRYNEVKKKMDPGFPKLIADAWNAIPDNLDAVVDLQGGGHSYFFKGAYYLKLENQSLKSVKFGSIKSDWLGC
Method: as §1, §2, §3, §4, §5

[2] = biological target: soluble form of TACE (TACE R651) (Homo sapiens, UniProt P78536); experiment: Enzyme inhibition kinetic study, TACE
Chain of soluble form of TACE (TACE R651) (P78536 215-651): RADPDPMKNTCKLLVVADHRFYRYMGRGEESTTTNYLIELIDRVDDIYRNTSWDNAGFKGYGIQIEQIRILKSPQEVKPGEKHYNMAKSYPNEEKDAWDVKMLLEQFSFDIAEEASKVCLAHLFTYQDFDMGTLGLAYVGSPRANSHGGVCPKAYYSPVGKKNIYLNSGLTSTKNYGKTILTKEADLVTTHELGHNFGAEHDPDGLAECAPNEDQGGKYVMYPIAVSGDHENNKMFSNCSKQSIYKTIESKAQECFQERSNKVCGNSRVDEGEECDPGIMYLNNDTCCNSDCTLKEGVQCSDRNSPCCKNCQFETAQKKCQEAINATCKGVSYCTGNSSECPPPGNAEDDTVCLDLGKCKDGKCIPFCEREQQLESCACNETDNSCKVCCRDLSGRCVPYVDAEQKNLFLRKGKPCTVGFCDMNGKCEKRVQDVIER
Method: FIG. 2. Inhibition of MMP and TACE by N-TIMP-3 and its mutants. A. Inhibition of MMP-14(CD) by wild-type and mutated N-TIMP-3. Open circles, wild-type N-TIMP-3; closed circles, T2G; and open squares, -1A. B. Comparison of the inhibition of TACE by wild-type N-TIMP-3, N-TIMP-1 and TAPI-2. The inhibitors were incubated with 0.5 nM TACE for 3 hr at room temperature, and the residual enzyme activity was measured with 10 μM Substrate III (R&D Systems). […] Open circles, N-TIMP-3; closed circles, TAPI-2; and open squares, N-TIMP-1. C. Inhibition of TACE (0.5 nM) by wild-type and mutated N-TIMP-3. Open circles, wild-type inhibitor; closed circles, T2G; and open squares, -1A.
as §1, §3
The inhibitory activities of the mutants were also compared with that of wild-type N-TIMP-3 against a soluble form of TACE in which the transmembrane and C-terminal cytoplasmic domains are deleted (TACE R651; (28)). […] The inhibition curve of TACE by wild-type N-TIMP-3 is sigmoid, in striking contrast with the inhibition by TAPI-2 and with the inhibition of MMPs by N-TIMP-3 and N-TIMP-1 (FIGS. 2A, 2B; (31)). Sigmoid inhibition curves were also obtained for TACE with the T2G and -1A mutants of N-TIMP-3 (FIG. 2C).

[3] = biological target: T3, catalytic domain of stromelysin 1 (MMP-3(ΔC)) (Homo sapiens, UniProt P08254); experiment: Enzyme inhibition kinetic study, MMP-3
T3 construct: the catalytic domains of stromelysin 1 (MMP-3(ΔC)) and membrane-type 1 MMP (MMP-14)
T3 sequence (P08254 100-272 limits assumed, stated change not applied): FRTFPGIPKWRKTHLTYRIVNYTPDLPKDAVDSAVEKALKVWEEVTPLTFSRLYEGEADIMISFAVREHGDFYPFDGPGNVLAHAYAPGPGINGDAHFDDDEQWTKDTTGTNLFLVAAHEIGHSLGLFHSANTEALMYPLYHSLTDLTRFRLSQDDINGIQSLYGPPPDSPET
Method: as §1, §2, §3, §4, §5

[4] = Table 3, read-out: Ki(app) MMP-1
[5] = higher pH and low ionic strength (TACE conditions), read-out: Ki MMP-1 under the conditions used for TACE activity measurements
[6] = Table II, 0.5 nM TACE, pH 9.0, 1 mM NaCl, fit with equation 3
[7] = Table II, 0.5 nM TACE, pH 9.0, 1 mM NaCl, fit with equation 3, read-out: Ki(app) TACE
[8] = Table 3, read-out: Ki(app) MMP-3

Ki [1, 4]: > 500 nM
Ki ([1]; Table I, enzyme 5 nM, pH 7.5, read-out: Ki(app) MMP-1): ~1300 nM
Ki [1, 5]: 412 nM
Ki (gelatinase A (MMP-2); Table 3): > 1000 nM
Ki (gelatinase A (MMP-2); Table I, enzyme 1 nM, pH 7.5): 614 ± 32 nM
h (Hill coefficient) for TACE inhibition [2, 6]: 1.9 ± 0.22
Ki [2, 7]: 33.9 ± 2.8 nM
Ki [3, 8]: > 1000 nM
Ki ([3]; Table I, enzyme 1 nM, pH 7.5, read-out: Ki(app) MMP-3(ΔC)): ~3300 nM
B1: -1A: N-TIMP-3 mutant with the addition of an N-terminal alanine extension (-1A) (protein)
chain: ACTCSPSHPQDAFCNSDIVIRAKVVGKKLVKEGPFGTLVYTIKQMKMYRGFTKMPHVQYIHTEASESLCGLKLEVNKYQYLLTGRVYDGKMYTGLCNFVERWDQLTLSQRKGLNYRYHLGCN

Ki [1, 4]: 8.2 ± 2 nM
Ki [1, 5]: 1.6 nM
Ki (gelatinase A (MMP-2); Table 3): 5.1 ± 1 nM
Inhibition of TACE activity (in words) ([2]; FIG. 2B, 0.5 nM TACE, pH 9.0, 1 mM NaCl): effectively inhibited
h (Hill coefficient) for TACE inhibition [2, 6]: 3.59 ± 0.16
Ki [2, 7]: 13.7 ± 0.2 nM
Ki ([2]; pH 7.5, sigmoid inhibition curves, read-out: Ki against TACE at pH 7.5): 26 ± 3 nM
Ki [3, 8]: 1.8 ± 0.4 nM
B2: N-TIMP-3: N-terminal inhibitory domain of TIMP-3 (residues 1 to 121), C-terminally His-tagged, wild-type (protein)
chain: CTCSPSHPQDAFCNSDIVIRAKVVGKKLVKEGPFGTLVYTIKQMKMYRGFTKMPHVQYIHTEASESLCGLKLEVNKYQYLLTGRVYDGKMYTGLCNFVERWDQLTLSQRKGLNYRYHLGCN

Inhibition of MMP-1 ([1]; 100 nM): no inhibition
Inhibition of MMP-2 (gelatinase A (MMP-2); 100 nM): no inhibition
Inhibition of TACE activity ([2]; 100 nM): 80-90%
Inhibition of MMP-3 ([3]; 100 nM): no inhibition
B3: (-2A)N-TIMP-3: N-TIMP-3 mutant with two alanine residues on the N-terminal side of Cysteine1 of the TIMP-3 sequence (protein)
chain: AACTCSPSHPQDAFCNSDIVIRAKVVGKKLVKEGPFGTLVYTIKQMKMYRGFTKMPHVQYIHTEASESLCGLKLEVNKYQYLLTGRVYDGKMYTGLCNFVERWDQLTLSQRKGLNYRYHLGCN
